From IntAct's records for PubMed 23290633

B1: Magnesium transporter NIPA4 (Homo sapiens), Q0D2K0 (parent)
chain: MELRVSNTSCENGSLLHLYCSSQEVLCQIVNDLSPEVPSNATFHSWQERIRQNYGFYIGLGLAFLSSFLIGSSVILKKKGLLRLVATGATRAVDGGFGYLKDAMWWAGFLTMAAGEVANFGAYAFAPATVVTPLGALSVLISAILSSYFLRESLNLLGKLGCVICVAGSTVMVIHAPEEEKVTTIMEMASKMKDTGFIVFAVLLLVSCLILIFVIAPRYGQRNILIYIIICSVIGAFSVAAVKGLGITIKNFFQGLPVVRHPLPYILSLILALSLSTQVNFLNRALDIFNTSLVFPIYYVFFTTVVVTSSIILFKEWYSMSAVDIAGTLSGFVTIILGVFMLHAFKDLDISCASLPHMHKNPPPSPAPEPTVIRLEDKNVLVDNIELASTSSPEEKPKVFIIHS

Variants of: B1
Conditions: with SLC27A4, Q6P1M0
Sequence of SLC27A4, Q6P1M0 (Q6P1M0 whole entry, looked up): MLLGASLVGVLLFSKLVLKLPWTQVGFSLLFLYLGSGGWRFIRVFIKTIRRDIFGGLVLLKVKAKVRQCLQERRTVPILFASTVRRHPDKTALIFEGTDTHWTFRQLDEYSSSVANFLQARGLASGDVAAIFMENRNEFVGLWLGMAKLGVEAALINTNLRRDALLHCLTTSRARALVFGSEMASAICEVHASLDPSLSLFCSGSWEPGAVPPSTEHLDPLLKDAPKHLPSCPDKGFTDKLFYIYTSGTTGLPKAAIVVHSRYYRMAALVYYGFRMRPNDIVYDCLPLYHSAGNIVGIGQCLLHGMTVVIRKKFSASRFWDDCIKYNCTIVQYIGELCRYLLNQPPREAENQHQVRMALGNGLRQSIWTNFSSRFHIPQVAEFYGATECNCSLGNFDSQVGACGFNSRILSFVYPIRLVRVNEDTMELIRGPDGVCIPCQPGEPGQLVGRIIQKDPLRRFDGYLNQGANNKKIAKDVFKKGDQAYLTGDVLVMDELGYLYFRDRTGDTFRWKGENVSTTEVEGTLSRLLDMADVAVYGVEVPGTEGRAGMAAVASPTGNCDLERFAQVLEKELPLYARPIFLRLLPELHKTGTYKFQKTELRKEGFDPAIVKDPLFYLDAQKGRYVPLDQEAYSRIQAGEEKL

Row | Variant | effect of a mutation on the interaction
1 | MELRVSNTSCENGSLLHLYCSSQEVLCQIVNDLSPEVPSNATFHSWQERIRQNYGFYIGLGLAFLSSFLIGSSVILKKKGLLRLVATGATRAVDGGFGYLKDAMWWAGFLTMADGEVANFGAYAFAPATVVTPLGALSVLISAILSSYFLRESLNLLGKLGCVICVAGSTVMVIHAPEEEKVTTIMEMASKMKDTGFIVFAVLLLVSCLILIFVIAPRYGQRNILIYIIICSVIGAFSVAAVKGLGITIKNFFQGLPVVRHPLPYILSLILALSLSTQVNFLNRALDIFNTSLVFPIYYVFFTTVVVTSSIILFKEWYSMSAVDIAGTLSGFVTIILGVFMLHAFKDLDISCASLPHMHKNPPPSPAPEPTVIRLEDKNVLVDNIELASTSSPEEKPKVFIIHS [A114D] | decreasing interaction
